Data published in PMC8352940 (2021).
Changes are numbered by the printed parent chain.

B1: nCoVmab2 (antibody, V domains shown)
VH: EVQLVQSGGGVVQPGRSLRLSCAASGFTVSSNYMSWVRQAPGKGLEWVSVIYSGGSTYYADSVKGRFTISRDNSKNTLYLQMNSLRAEDTAVYYCARGDGSDDYYYGMDVWGQGTTVTVSS
VL: QAVLTQPSSVSGAPGQRVTISCTGSSSNVGAGYDVHWYQQLPGTAPKLLIYGNSNRPSGVPDRFSGSKSGTSASLAITGLQAEDEADYYCQSYDSSLSGSVFGGGTKLTVL
B2: nCoVmab1 (antibody, V domains shown)
VH: B1 VH with E1Q, Q6E, V11L, R16G
VL: QSVVTQPPSVSGAQGQRVFISCTGNGANIGMGYDVHWYQQLPGRAPKLLIFGNTNRPSGVPDRFSASRSGTSASLAITGLQTADEADYYCQSYDGNLRASVFGGGTKLTVL

Target: SARS-CoV-2 RBD without the Fc fragment (SARS-CoV-2, UniProt P0DTC2 319-541)
Assay: BLI

Row | Binder | koff [s⁻¹]
1 | B1 | 4.95e-05
2 | B2 | 1.01e-05
